The values below come from patent US8497083B2, “Fructosyl amino acid oxidase” (priority 2009, dated 2013).

In data set [1] the target is T1, fructosyl amino acid oxidase from Phaeosphaeria nodorum (PnFPOX, SEQ ID NO: 1) variant N56A (Parastagonospora nodorum, UniProt Q0UIL6, N56A). As to the kind of experiment: Oxidase activity kinetics (4AA/TODB/POD), PnFPOX N56A mutant. It is filed as biochemical. Conditions: purified enzyme, 25° C., pH 7.0. The text has this: (§1) As used herein “oxidase activity” is an enzymatic activity (Vmax) of the fructosyl amino acid oxidase to catalyze oxidation of fructosyl amino acid to generate 2-keto-D-glucose and the corresponding amino acid while utilizing oxygen as an electron acceptor. The oxidase activity may be assayed by measuring the amount of generated H2O2 by any methods known in the art, including by way of non-limiting example, reagents for H2O2 detection such as […] (4-aminoantipyrine/N,N-Bis(4-sulfobutyl)-3-methylaniline disodium salt/horseradish peroxidase) or by Pt electrode. As used herein in the context of the relative or quantitative activity, the oxidase activity is specifically defined to be the mole amount of the substrate (fructosyl amino acid) oxidized per unit time measured by the amount of generated H2O2 at 25° C. in 10 mM PPB, pH 7.0, 1.5 mM TODB, 2 U/ml horseradish peroxidase (POD), and 1.5 mM 4-aminoantipyrine (4AA). The formation of quinoneimine dye may be measured spectrophotometrically at 546 nm.
T1 sequence (Q0UIL6 whole entry N56A): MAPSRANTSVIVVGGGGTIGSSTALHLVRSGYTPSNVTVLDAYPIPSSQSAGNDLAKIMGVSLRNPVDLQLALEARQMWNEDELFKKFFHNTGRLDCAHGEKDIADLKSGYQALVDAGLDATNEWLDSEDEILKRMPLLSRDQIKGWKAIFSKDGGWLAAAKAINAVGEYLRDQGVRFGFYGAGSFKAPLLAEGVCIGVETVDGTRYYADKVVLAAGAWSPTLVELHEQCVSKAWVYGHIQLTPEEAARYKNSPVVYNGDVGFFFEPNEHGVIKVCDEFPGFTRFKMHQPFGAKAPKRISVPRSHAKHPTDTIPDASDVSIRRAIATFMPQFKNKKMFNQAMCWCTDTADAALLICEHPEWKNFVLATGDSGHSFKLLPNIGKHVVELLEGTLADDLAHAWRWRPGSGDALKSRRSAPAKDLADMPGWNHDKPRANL
(§2) Escherichia coli BL21 (DE3) cells harboring expression vectors of N1-1 FAOD (SEQ ID NO: 2) mutants were grown in 150 ml of LB medium containing 50 μg/ml kanamycin at 37° C. After reaching an A660 value of 0.6, 0.3 mM IPTG was added and incubated at 25° C. for an additional 5 hours. The cells were collected by centrifugation and washed twice with 0.85% NaCl.aq. Then, the cells were resuspended in 10 mM Potassium Phosphate Buffer (PPB) pH 7.0 and lysed by ultrasonic homogenizer. The lysate was centrifuged at 10,000×g, 4° C. for 10 min, and the supernatant was centrifuged at 50,000 rpm, 4° C. for 60 min, then the supernatant was dialyzed against 10 mM PPB (pH 7.0). The oxidase activity was assayed at 25° C. in 10 mM PPB, pH 7.0, 1.5 mM TODB, 2 U/ml horseradish peroxidase (POD), and 1.5 mM 4-aminoantipyrine (4AA) in the presence of substrates (0.2, 0.5, 0.75, 1, 2, 5 mM f-^αVal […]). The formation of quinoneimine dye was measured spectrophotometrically at 546 nm. The dehydrogenase activity was assayed at 25° C. in 10 mM PPB (pH 7.0), 0.6 mM DCIP, and 6 mM methoxy PMS (mPMS) in the presence of substrates (0.2, 0.5, 1, 2, 5 mM f-^αVal or 5 mM f-^αVal-His).
(§3) Mutations were introduced using site-directed mutagenesis as in Example 1, and BL21 (DE3) cells were transformed with an expression vector containing wild-type or mutant PnFPOX (SEQ ID NO: 1). The cultured cells were resuspended in 10 mM PPB, pH 7.0, and lysed by sonication. The lysate was centrifuged at 10,000 g at 4° C. for 20 min, and the supernatant was centrifuged at 50,000 rpm at 4° C. for 60 min. The oxidase and dehydrogenase activities were measured as in Example 1.
(§4) BL21 (DE3) transformed with pEPN (pET28a-PnFPOX)-N56A was grown aerobically at 37° C. in LB medium (2 l) containing 50 μg kanamycin ml^−1. […]

Data set [2] concerns the target T1, fructosyl amino acid oxidase from Phaeosphaeria nodorum (PnFPOX, SEQ ID NO: 1) variant N56A. As to the kind of experiment: Dehydrogenase activity kinetics (mPMS/DCIP), PnFPOX N56A mutant. It is filed as biochemical. Conditions: purified enzyme, 25° C., pH 7.0.
Excerpt: (§5) As used herein, “dehydrogenase activity” is an enzymatic activity (Vmax) of the fructosyl amino acid oxidase to catalyze oxidation of fructosyl amino acid to generate 2-keto-D-glucose and the corresponding amino acid while utilizing an electron mediator other than oxygen as an electron acceptor. The dehydrogenase activity may be assayed by measuring the amount of electrons transferred to the mediator using, for example, one of mPMS/DCIP (1-methoxy-5-methylphenazinium methylsulfate/2,6-dichloroindophenol), cPES (trifluoro-acetate-1-(3-carboxy-propoxy)-5-ethyl-phenanzinium, NA BM31—1144 (N,N-bis-(hydroxyethyl)-3-methoxynitrosoaniline hydrochloride, NA BM31—1008 (N,N-bis-hydroxyethyl-4-nitrosoaniline) and N—N-4-dimethyl-nitrosoaniline.
(§6) As used herein in the context of the relative or quantitative activity, the dehydrogenase activity is specifically defined to be the mole amount of the substrate (fructosyl amino acid) oxidized per unit time measured by the amount of electrons transferred to the mediator at 25° C. in 10 mM PPB (pH 7.0), 0.6 mM DCIP, and 6 mM methoxy PMS (mPMS).
as §2
(§7) Mutations were introduced using site-directed mutagenesis as in Example 1, and BL21 (DE3) cells were transformed with an expression vector containing wild-type or mutant PnFPOX (SEQ ID NO: 1). The cultured cells were resuspended in 10 mM PPB, pH 7.0, and lysed by sonication. The lysate was centrifuged at 10,000 g at 4° C. for 20 min, and the supernatant was centrifuged at 50,000 rpm at 4° C. for 60 min. The oxidase and dehydrogenase activities were measured as in Example 1. […]

The subject of data set [3] is CC(C)[C@H](NCC1(O)OC[C@@H](O)[C@@H](O)[C@@H]1O)C(=O)O. As to the kind of experiment: Oxidase activity kinetics (4AA/TODB/POD), PnFPOX N56A mutant. It is filed as biochemical, Phaeosphaeria nodorum. Conditions: other: purified enzyme, 25° C., pH 7.0.
Excerpt: as §1, §2, §3, §4

The test system of data set [4] is CC(C)[C@H](NCC1(O)OC[C@@H](O)[C@@H](O)[C@@H]1O)C(=O)N[C@@H](Cc1c[nH]cn1)C(=O)O. The description is as above. It is filed as biochemical, Phaeosphaeria nodorum. Particulars: other: purified enzyme, 25° C., pH 7.0.
Excerpt: as §1, §2, §3, §4

Data set [5] relates to CC(C)[C@H](NCC1(O)OC[C@@H](O)[C@@H](O)[C@@H]1O)C(=O)O. The data set is described as follows: Dehydrogenase activity kinetics (mPMS/DCIP), PnFPOX N56A mutant. In kind it is biochemical, Phaeosphaeria nodorum. Particulars: other: purified enzyme, 25° C., pH 7.0.
Excerpt: as §5, §6, §2, §7

The test system of data set [6] is CC(C)[C@H](NCC1(O)OC[C@@H](O)[C@@H](O)[C@@H]1O)C(=O)N[C@@H](Cc1c[nH]cn1)C(=O)O. The data set is described as above. It is filed as biochemical, Phaeosphaeria nodorum. Conditions: other: purified enzyme, 25° C., pH 7.0.
Excerpt: as §5, §6, §2, §7

For data set [7], the system named is CC(C)[C@H](NCC1(O)OC[C@@H](O)[C@@H](O)[C@@H]1O)C(=O)O. The data set is described as follows: Dehydrogenase activity kinetics (mPMS/DCIP), PnFPOX wild type. It is filed as biochemical, Phaeosphaeria nodorum. Conditions: other: mPMS/DCIP, 25° C., pH 7.0.
Excerpt: As used herein, “dehydrogenase activity” is an enzymatic activity (Vmax) of the fructosyl amino acid oxidase to catalyze oxidation of fructosyl amino acid to generate 2-keto-D-glucose and the corresponding amino acid while utilizing an electron mediator other than oxygen as an electron acceptor. […]
as §6
Escherichia coli BL21 (DE3) cells harboring expression vectors of N1-1 FAOD (SEQ ID NO: 2) mutants were grown in 150 ml of LB medium containing 50 μg/ml kanamycin at 37° C. […] The formation of quinoneimine dye was measured spectrophotometrically at 546 nm. […]
Mutations were introduced using site-directed mutagenesis as in Example 1, and BL21 (DE3) cells were transformed with an expression vector containing wild-type or mutant PnFPOX (SEQ ID NO: 1). […] The oxidase and dehydrogenase activities were measured as in Example 1.
(§8) The oxidase and dehydrogenase activities of the N56A mutant FAOD were measured. […]

Data set [8] has the same test system. The data set is described as follows: Oxidase activity kinetics (4AA/TODB/POD), PnFPOX wild type. It is filed as biochemical, Phaeosphaeria nodorum. Particulars: other: 4AA/TODB/POD, 25° C., pH 7.0.
Excerpt: as §1, §2, §3, §8

Data set [9] deals with CC(C)[C@H](NCC1(O)OC[C@@H](O)[C@@H](O)[C@@H]1O)C(=O)N[C@@H](Cc1c[nH]cn1)C(=O)O. The description is as above. It is filed as biochemical, Phaeosphaeria nodorum. Particulars: other: 4AA/TODB/POD, 25° C., pH 7.0.
Excerpt: as §1, §2, §3, §8

Substrate in data set [10]: CC(C)[C@H](NCC1(O)OC[C@@H](O)[C@@H](O)[C@@H]1O)C(=O)O
As to the kind of experiment: Dehydrogenase activity kinetics (mPMS/DCIP), N1-1 FAOD wild type. Particulars: 25° C., pH 7.0. It is filed as biochemical, Pichia sp. N1-1.
Excerpt: as §5, §6, §2
(§9) The recombinant FAOD was purified as follows. First, a water-soluble fraction containing the enzyme was prepared from recombinant Escherichia coli. E. coli containing the expression vector was cultured in 7 L LB medium (37° C., in 10 L fermenter, 50 μg/ml ampicillin), then the expression was induced with IPTG (final concentration: 0.3 mM) at about OD660=0.7 and culture temperature was lowered to 30° C. The cells were suspended in 100 mM PPb (pH 7.0) and disrupted four times using a French press. […]

Substrate in data set [11]: CC(C)[C@H](NCC1(O)OC[C@@H](O)[C@@H](O)[C@@H]1O)C(=O)O
As to the kind of experiment: Oxidase activity kinetics (4AA/TODB/POD), N1-1 FAOD wild type. In kind it is biochemical, Pichia sp. N1-1. Conditions: 25° C., pH 7.0.
Excerpt: as §1, §2, §9

Substrate in data set [12]: CC(C)[C@H](NCC1(O)OC[C@@H](O)[C@@H](O)[C@@H]1O)C(=O)O
As to the kind of experiment: Oxidase activity kinetics (4AA/TODB/POD), N1-1 FAOD N47A mutant. In kind it is biochemical, Pichia sp. N1-1. Particulars: 25° C., pH 7.0.
Excerpt: as §1, §2, §9

Substrate in data set [13]: CC(C)[C@H](NCC1(O)OC[C@@H](O)[C@@H](O)[C@@H]1O)C(=O)O
As to the kind of experiment: Dehydrogenase activity kinetics (mPMS/DCIP), N1-1 FAOD N47A mutant. It is filed as biochemical, Pichia sp. N1-1. Particulars: 25° C., pH 7.0.
Excerpt: as §5, §6, §2, §9

As for `CC(C)[C@H](NCC1(O)OC[C@@H](O)[C@@H](O)[C@@H]1O)C(=O)N[C@@H](Cc1cnc[nH]1)C(=O)O` (stereo partly shown) [f-αValHis, fructosyl valyl histidine], the Vmax in data set [1] is 1.90 U/mg; in data set [2], 3.40 U/mg.
In general, Km refers to the concentration of substrate that gives half-maximal velocity. With “fructosyl amino acid oxidase from Phaeosphaeria nodorum (PnFPOX, SEQ ID NO: 1) variant N56A (Parastagonospora nodorum SN15; N56A)”, the Km worked out at 86 µM in data set [3], 92 µM in data set [4], 1600 µM in [5] and 74 µM in [6].
As to “fructosyl amino acid oxidase from Phaeosphaeria nodorum (PnFPOX), wild type, SEQ ID NO: 1 (Parastagonospora nodorum SN15)”, the Km was 1100 µM in data set [7], 640 µM in data set [8] and 200 µM in data set [9]. Also, the Vmax in data set [7] amounted to 28.0 U/mg; in data set [8], 27.6 U/mg; in [9] it was 2.97 U/mg.

B1: fructosyl amino acid oxidase from Pichia sp. N1-1 (N1-1 FAOD), wild type, SEQ ID NO: 2 (Pichia sp. N1-1) (protein)
chain: MESIIIVGAGTFGLSTALQLARDGYKNIKCFDKFPVPSEIAAGNDSNKIFHYDYVAPLAKPNSKERLSLEALHLWKTDPVYKPYYHPVGFILAASSDAPLLHDKEYYEELQKNGLRNYRYISTPEEFREYLPILKGPLPNWRGYVLDGDNGWLHARDSLKSAYEECKRLGVEFVFGDDGEIVELLNENGKLTGIRARSGAIFSAQKYVLSSGANAVTLLNFQRQLEGKCFTLAHFKVTDEEAKAFKSLPVLFNAEKGFFFEADENNEIKICNEYPGFTHTNESGESIPLYRMEIPLESALEIRQYLKETMPQFADRPFTKTRICWCTDSPDMQLILCTHPEYTNLIVASGDSGNSFKIMPIIGKYVSKVVTKGDKGLDPEDKECWKWRPETWDKRGQVRWGGRYRVADLNEIEEWVSVENPTPHKLE
notes: 427 aa
As for B1, the Michaelis constant (Km) worked out at 3220 µM in data set [10] (other: crude preparation), 4600 µM in data set [10] (other: purified enzyme), 2640 µM in data set [11] (other: crude preparation) and 4800 µM in data set [11] (other: purified enzyme). In addition, the Vmax was 0.60 U/mg in data set [10] (other: crude preparation), 9.8 U/mg in data set [10] (other: purified enzyme), 0.71 U/mg in [11] (other: crude preparation) and 9.3 U/mg in [11] (other: purified enzyme).

B2: fructosyl amino acid oxidase from Pichia sp. N1-1 (N1-1 FAOD, SEQ ID NO: 2) variant N47A (Pichia sp. N1-1; N47A) (protein)
chain: MESIIIVGAGTFGLSTALQLARDGYKNIKCFDKFPVPSEIAAGNDSAKIFHYDYVAPLAKPNSKERLSLEALHLWKTDPVYKPYYHPVGFILAASSDAPLLHDKEYYEELQKNGLRNYRYISTPEEFREYLPILKGPLPNWRGYVLDGDNGWLHARDSLKSAYEECKRLGVEFVFGDDGEIVELLNENGKLTGIRARSGAIFSAQKYVLSSGANAVTLLNFQRQLEGKCFTLAHFKVTDEEAKAFKSLPVLFNAEKGFFFEADENNEIKICNEYPGFTHTNESGESIPLYRMEIPLESALEIRQYLKETMPQFADRPFTKTRICWCTDSPDMQLILCTHPEYTNLIVASGDSGNSFKIMPIIGKYVSKVVTKGDKGLDPEDKECWKWRPETWDKRGQVRWGGRYRVADLNEIEEWVSVENPTPHKLE
notes: crude and purified
As to B2, the Km in data set [12] (other: crude preparation) is 1420 µM; in data set [12] (other: purified enzyme), 2200 µM; in [13] (other: crude preparation), 9130 µM; in data set [13] (other: purified enzyme) it was 6200 µM. Also, the Vmax in [12] (other: crude preparation) came to 0.11 U/mg; in data set [12] (other: purified enzyme), 1.4 U/mg; in data set [13] (other: crude preparation), 0.82 U/mg; in data set [13] (other: purified enzyme), 6.0 U/mg.
